Experimental data published in patent US20180036445A1.
Each block holds one substance with its values, some of them ahead of it.

Assays:
[1] = target: Fab/Mab (sample loaded in Example 3); assay: 10% breakthrough dynamic binding capacity, ligand on agarose column, residence time 6 min, no SIP
[2] = target: Fab/Mab (sample loaded in Example 3); assay: 10% breakthrough dynamic binding capacity, ligand on agarose column, after 24 h in 0.1 M peracetic acid
[3] = target: Fab/Mab (sample loaded in Example 3); assay: difference of dynamic binding capacity, after SIP minus control without SIP
[4] = target: Fab/Mab (sample loaded in Example 3); assay: difference of dynamic binding capacity, after SIP minus control without SIP, MabSelect
[5] = target: Fab/Mab (sample loaded in Example 3); assay: 10% breakthrough dynamic binding capacity, MabSelect column, after 24 h in 0.1 M peracetic acid
[6] = target: Fab/Mab (sample loaded in Example 3); assay: difference of dynamic binding capacity, after SIP minus control without SIP, MabSelect Xtra
[7] = target: Fab/Mab (sample loaded in Example 3); assay: 10% breakthrough dynamic binding capacity, MabSelect Xtra column, after 24 h in 0.1 M peracetic acid
[8] = target: Fab/Mab (sample loaded in Example 3); assay: 10% breakthrough dynamic binding capacity, MabSelect Xtra column, residence time 6 min, no SIP
[9] = target: Fab/Mab (sample loaded in Example 3); assay: 10% breakthrough dynamic binding capacity, MabSelect column, residence time 6 min, no SIP
[10] = target: Fab (sample of Example 4); assay: static binding capacity in filter plate, after 4 h in 500 mM peracetic acid, 90 min incubation with Fab, relative to PBS control
[11] = target: Fab (sample of Example 4); assay: static binding capacity in filter plate, after 24 h in 500 mM peracetic acid, 10 min incubation with Fab, relative to PBS control
[12] = target: Fab (sample of Example 4); assay: static binding capacity in filter plate, after 4 h in 100 mM peracetic acid, 90 min incubation with Fab, relative to PBS control
[13] = target: Fab (sample of Example 4); assay: static binding capacity in filter plate, after 24 h in 5% H2O2, 10 min incubation with Fab, relative to PBS control
[14] = target: Fab (sample of Example 4); assay: static binding capacity in filter plate, after 4 h in 5% H2O2, 90 min incubation with Fab, relative to PBS control
[15] = target: Fab (sample of Example 4); assay: static binding capacity in filter plate, after 4 h in 100 mM peracetic acid, 10 min incubation with Fab, relative to PBS control
[16] = target: Fab (sample of Example 4); assay: static binding capacity in filter plate, after 24 h in 500 mM peracetic acid, 90 min incubation with Fab, relative to PBS control
[17] = target: Fab (sample of Example 4); assay: static binding capacity in filter plate, after 24 h in 100 mM peracetic acid, 10 min incubation with Fab, relative to PBS control
[18] = target: Fab/Mab (sample loaded in Example 3); assay: 10% breakthrough dynamic binding capacity, ligand on agarose column, after 24 h in 0.1 M peracetic acid (ligand degraded by the treatment)

recombinant Protein L (rPrL), sequence (chain): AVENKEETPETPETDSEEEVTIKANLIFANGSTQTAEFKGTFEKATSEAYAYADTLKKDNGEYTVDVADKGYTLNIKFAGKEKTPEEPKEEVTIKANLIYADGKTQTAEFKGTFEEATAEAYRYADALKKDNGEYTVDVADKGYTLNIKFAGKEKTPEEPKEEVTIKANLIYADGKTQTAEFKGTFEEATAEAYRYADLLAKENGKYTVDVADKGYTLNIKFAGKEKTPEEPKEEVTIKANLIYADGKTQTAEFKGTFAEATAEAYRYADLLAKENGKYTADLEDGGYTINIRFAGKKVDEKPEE

- DBC control, no SIP [1]: 63 g/L
- DBC after SIP [2]: 63 g/L
- ΔDBC [3]: 0 g/L
Substance: MabSelect SuRe LX ligand (multimer of Protein Z variant with substituted asparagines) (designed binder)

- DBC control, no SIP [1]: 50 g/L
- DBC after SIP [2]: 51 g/L
- ΔDBC [3]: 1 g/L
Substance: MabSelect SuRe ligand (multimer of Protein Z variant with substituted asparagines) (designed binder)

Substance: recombinant Protein A (rPrA) (from UniProt P38507 42-327)
- ΔDBC [4]: -1 g/L
- DBC after SIP [5]: 51 g/L
- ΔDBC [6]: 1 g/L
- DBC after SIP [7]: 60 g/L
- DBC control, no SIP [8]: 59 g/L
- DBC control, no SIP [9]: 52 g/L

- Relative remaining SBC (%) [10]: 103%
- Relative remaining SBC (%) [11]: 97%
- Relative remaining SBC (%) [12]: 101%
- Relative remaining SBC (%) [13]: 102%
- Relative remaining SBC (%) [14]: 102%
- Relative remaining SBC (%) [15]: 109%
- DBC control, no SIP [1]: 30 g/L
- DBC after SIP [2]: 29 g/L
- ΔDBC [3]: -1 g/L
- Relative remaining SBC (%) [16]: 102%
- Relative remaining SBC (%) [17]: 107%
Substance: recombinant Protein L (rPrL)

- DBC after SIP [18]: 0 g/L
- DBC control, no SIP [1]: 20 g/L
- ΔDBC [3]: -20 g/L
Substance: single-chain camelid antibody against IgG kappa chains (KappaSelect ligand) (VHH)
